Residue numbers refer to the chain shown, from its start. In names and notes the source's numbering stands.
B1: tPA: tissue plasminogen activator (Genentech, Inc.), thrombolytic agent (protein, UniProt P00750 36-562, looked up)
Tissue-type plasminogen …: SYQVICRDEKTQMIYQQHQSWLRPVLRSNRVEYCWCNSGRAQCHSVPVKSCSEPRCFNGGTCQQALYFSDFVCQCPEGFAGKCCEIDTRATCYEDQGISYRGTWSTAESGAECTNWNSSALAQKPYSGRRPDAIRLGLGNHNYCRNPDRDSKPWCYVFKAGKYSSEFCSTPACSEGNSDCYFGNGSAYRGTHSLTESGASCLPWNSMILIGKVYTAQNPSAQALGLGKHNYCRNPDGDAKPWCHVLKNRRLTWEYCDVPSCSTCGLRQYSQPQFRIKGGLFADIASHPWQAAIFAKHRRSPGERFLCGGILISSCWILSAAHCFQERFPPHHLTVILGRTYRVVPGEEEQKFEVEKYIVHKEFDDDTYDNDIALLQLKSDSSRCAQESSVVRTVCLPPADLQLPDWTECELSGYGKHEALSPFYSERLKEAHVRLYPSSRCTSQHLLNRTVTDNMLCAGDTRSGGPQANLHDACQGDSGGPLVCLNDGRMTLVGIISWGLGCGQKDVPGVYTKVTNYLDWIRDNMRP
B2: C84S tPA: tPA variant in which cysteine at position 84 of the growth factor domain of native tPA is replaced by serine (protein, UniProt P00750 36-562, looked up, variant C84S)
Tissue-type plasminogen …: B1 Tissue-type plasminogen … with C84S
B3: TNK tPA: triple mutant variant of wild type tPA: T103N, N117Q, KHRR (296-299) AAAA tPA (protein, UniProt P00750 36-562, looked up, variant T103N N117Q K296A H297A R298A R299A)
Tissue-type plasminogen …: B1 Tissue-type plasminogen … with T103N, N117Q, K296A, H297A, R298A, R299A

Tests used:
[1] = system: rabbit model of thromboembolic stroke (brain infarct); assay: Brain infarct size in rabbit model of thromboembolic stroke; type: in vivo; details: 16-HETE 1 μg/kg per minute for 1 hour from 1 h after embolization, tPA 6.3 mg/kg between 3 and 5 hours
Description: New Zealand rabbits of either sex, weighing 3-4 kilograms were used for the study. Prior to the start of the experiment, the rabbits were divided into three groups, those that were administered either 16-HETE at a rate of 1 μg/kg per minute for one hour, tPA (Genentech, Inc., San Francisco, Calif.) at a concentration of 6.3 mg/kg. 16-HETE plus tPA, or vehicle.
On the day of treatment the animals were fasted for 12 hours with free access to water and then anesthetized with an intramuscular solution of ketamine (50 mg/kg), acepromazine (20 mg) and xylazine (5 mg/kg). This solution was subsequently used to maintain a surgical depth of anesthesia as determined by responses to various physiologic and autonomic stimuli, including mean arterial pressure and response to paw pinch.
The animals were prepared for surgery by introducing femoral venous and arterial catheters (PE50 and 90, respectively; Clay Adams, Parsippany, N.J.). […]
Following determination of all base line values the right common carotid bifurcation is exposed, the internal carotid artery (ICA) isolated, a micro-arteriotomy performed and the 15-mm clot embolized intracranially via the ICA. […] Post embolization rCBF is then determined and the experiment continued if rCBF is reduced to 15 cc /100 gm/minute in at least one of the PT-IR electrodes within the embolized hemisphere. […]

fibrin = details: compared with native tPA or other variants; cited from earlier work
[2] = compared with native tPA; cited from earlier work

Row | Molecule | brain infarct size [1] | potency / effectiveness (fibrin) | in vivo / circulatory half life [2]
1 | B1 | significantly larger than the 16-HETE group | – | –
2 | B2 | – | retains the functional activity of native tPA | longer in vivo half life than native tPA
3 | B3 | – | most effective of the triple mutant variants | –

From patent US6140364A, “Arachidonic acid metabolite, 16-HETE” (The University of Vermont and State Agricultural College, priority 1996, dated 2000)
